Experimental data taken from patent US20180044374A1.
“And” between values parts separate entries of the source, which are not always exact repeats. Equal entries are not always repeated.

Tests used:
[1] = target: human polyclonal IgG (Gammanorm) (human); assay: dynamic binding capacity; matrix C1, ligand […]
[2] = target: human polyclonal IgG (Gammanorm) (human); assay: dynamic binding capacity; matrix C2, ligand […]
[3] = target: human polyclonal IgG (Gammanorm) (human); assay: dynamic binding capacity; matrix C3, ligand […]; conditions: ligand content 5.9 mg/ml
[4] = target: human polyclonal IgG (Gammanorm) (human); assay: dynamic binding capacity; matrix C4, ligand […]
[5] = target: human polyclonal IgG (Gammanorm) (human); assay: dynamic binding capacity; matrix A29, ligand 11 mg/ml
[6] = target: human polyclonal IgG (Gammanorm) (human); assay: dynamic binding capacity; matrix A28, ligand 7.9 mg/ml
[7] = target: human polyclonal IgG (Gammanorm) (human); assay: dynamic binding capacity; matrix A29, ligand 7.3 mg/ml
[8] = target: human polyclonal IgG (Gammanorm) (human); assay: dynamic binding capacity; matrix A33, ligand 9.4 mg/ml
[9] = target: human polyclonal IgG (Gammanorm) (human); assay: dynamic binding capacity; matrix A39, ligand 7.0 mg/ml
[10] = target: human polyclonal IgG (Gammanorm) (human); assay: dynamic binding capacity; matrix A41, ligand 5.0 mg/ml
[11] = target: human polyclonal IgG (Gammanorm) (human); assay: dynamic binding capacity; matrix C4, ligand 10.1 mg/ml
[12] = target: human polyclonal IgG (Gammanorm) (human); assay: dynamic binding capacity; matrix A20, ligand 10.6 mg/ml
[13] = target: human polyclonal IgG (Gammanorm) (human); assay: dynamic binding capacity; matrix A28, ligand 11.9 mg/ml
[14] = target: human polyclonal IgG (Gammanorm) (human); assay: dynamic binding capacity; matrix A32, ligand 13.3 mg/ml
[15] = target: human polyclonal IgG (Gammanorm) (human); assay: dynamic binding capacity; matrix A38, ligand 11.3 mg/ml
[16] = target: human polyclonal IgG (Gammanorm) (human); assay: dynamic binding capacity; matrix A40, ligand 11.0 mg/ml
[17] = target: human polyclonal IgG (Gammanorm) (human); assay: dynamic binding capacity; matrix A41, ligand 13.0 mg/ml
[18] = target: human polyclonal IgG (Gammanorm) (human); assay: dynamic binding capacity; matrix A41, ligand 8.83 mg/ml
[19] = target: human polyclonal IgG (Gammanorm) (human); assay: dynamic binding capacity; matrix A42, ligand 6.72 mg/ml
[20] = target: human polyclonal IgG (Gammanorm) (human); assay: dynamic binding capacity; matrix A43, ligand 6.99 mg/ml
[21] = target: human polyclonal IgG (Gammanorm) (human); assay: dynamic binding capacity; matrix A62a, ligand 6.6 mg/ml
[22] = target: human polyclonal IgG (Gammanorm) (human); assay: dynamic binding capacity; matrix A62a, ligand 7.5 mg/ml
[23] = target: human polyclonal IgG (Gammanorm) (human); assay: dynamic binding capacity; matrix A62a, ligand 9.7 mg/ml
[24] = target: human polyclonal IgG (Gammanorm) (human); assay: dynamic binding capacity; matrix A65a, ligand 6.1 mg/ml
[25] = target: human polyclonal IgG (Gammanorm) (human); assay: dynamic binding capacity; matrix A65b, ligand 8.8 mg/ml
[26] = target: human polyclonal IgG (Gammanorm) (human); assay: dynamic binding capacity; matrix A40, ligand 11.03 mg/ml
[27] = target: human polyclonal IgG (Gammanorm) (human); assay: dynamic binding capacity; matrix A43, ligand 10.51 mg/ml
[28] = target: human polyclonal IgG (Gammanorm) (human); assay: dynamic binding capacity; matrix A62a, ligand 14.8 mg/ml
[29] = target: human polyclonal IgG (Gammanorm) (human); assay: dynamic binding capacity; matrix A63a, ligand 14.0 mg/ml
[30] = target: human polyclonal IgG (Gammanorm) (human); assay: dynamic binding capacity; matrix A65a, ligand 13.6 mg/ml
[31] = target: human polyclonal IgG (Gammanorm) (human); assay: dynamic binding capacity; ligand 12 mg/ml, before 1 M NaOH
[32] = target: human polyclonal IgG (Gammanorm) (human); assay: dynamic binding capacity; ligand 13 mg/ml, before 1 M NaOH

Substance “Zvar(Q9A, N11E, Q40V, A42K, N43A, L44I)4 (designed binder)” has a Qb10% 2.4 min [1] of 38 mg/mL, a Qb10% 6 min [1] of 47 mg/mL and a Qb10% 2.4 min [2] of 39 mg/mL. For the same substance, the Qb10% 6 min [2] was 46 mg/mL, the Qb10% 2.4 min [3] was 44 mg/mL and the Qb10% 6 min [3] was 52 mg/mL. It also gave a Qb10% 2.4 min [4] of 59 mg/mL, a Qb10% 6 min [4] of 67 mg/mL and a Qb10% 2.4 min [5] of 34.9 mg/mL. The Qb10% 6 min [5] was 64.7 mg/mL, the Qb10% 2.4 min [6] was 42.4 mg/mL and 42 mg/mL and the Qb10% 6 min [6] was 58.2 mg/mL and 58 mg/mL. It also gave a Qb10% 2.4 min [7] of 36.3 mg/mL, a Qb10% 6 min [7] of 51.8 mg/mL and a Qb10% 2.4 min [8] of 51 mg/mL. It also gave a Qb10% 6 min [8] of 58 mg/mL, a Qb10% 2.4 min [9] of 42 mg/mL and a Qb10% 6 min [9] of 55 mg/mL. It also gave a Qb10% 2.4 min [10] of 35.6 mg/mL, a Qb10% 6 min [10] of 46 mg/mL and a Qb10% 2.4 min [11] of 55 mg/mL. The Qb10% 6 min [11] was 63 mg/mL, the Qb10% 2.4 min [12] was 50.7 mg/mL and 51 mg/mL and the Qb10% 6 min [12] was 70.1 mg/mL and 70 mg/mL. For the same substance, the Qb10% 2.4 min [13] was 39.9 mg/mL and 40 mg/mL, the Qb10% 6 min [13] was 63.8 mg/mL and 64 mg/mL and the Qb10% 2.4 min [14] was 37 mg/mL. The Qb10% 6 min [14] was 66 mg/mL, the Qb10% 2.4 min [15] was 48 mg/mL and the Qb10% 6 min [15] was 73 mg/mL. It also gave a Qb10% 2.4 min [16] of 55 mg/mL, a Qb10% 6 min [16] of 74 mg/mL and a Qb10% 2.4 min [17] of 35 mg/mL. The Qb10% 6 min [17] was 62.2 mg/mL, the Qb10% 2.4 min [18] was 38.5 mg/mL and 37.8 mg/mL and 35.1 mg/mL and the Qb10% 6 min [18] was 56.8 mg/mL and 58.6 mg/mL and 57.2 mg/mL. The Qb10% 2.4 min [19] was 33.6 mg/mL, the Qb10% 6 min [19] was 50 mg/mL and the Qb10% 2.4 min [20] was 33.4 mg/mL. For the same substance, the Qb10% 6 min [20] was 49.8 mg/mL, the Qb10% 2.4 min [21] was 41 mg/mL and the Qb10% 6 min [21] was 46 mg/mL. For the same substance, the Qb10% 2.4 min [22] was 47 mg/mL, the Qb10% 6 min [22] was 56 mg/mL and the Qb10% 2.4 min [23] was 48 mg/mL. For the same substance, the Qb10% 6 min [23] was 60 mg/mL, the Qb10% 2.4 min [24] was 40 mg/mL and the Qb10% 6 min [24] was 44 mg/mL. For the same substance, the Qb10% 2.4 min [25] was 49 mg/mL, the Qb10% 6 min [25] was 56 mg/mL and the Qb10% 2.4 min [26] was 55 mg/mL. The Qb10% 6 min [26] was 73.8 mg/mL, the Qb10% 2.4 min [27] was 31.8 mg/mL and the Qb10% 6 min [27] was 58 mg/mL. The Qb10% 2.4 min [28] was 55 mg/mL, the Qb10% 6 min [28] was 62 mg/mL and the Qb10% 2.4 min [29] was 48 mg/mL. For the same substance, the Qb10% 6 min [29] was 56 mg/mL, the Qb10% 2.4 min [30] was 52 mg/mL and the Qb10% 6 min [30] was 61 mg/mL. It also gave a Qb10%, 6 min, before incubation [31] of 78 mg/mL and a Qb10%, 6 min, before incubation [32] of 79 mg/mL.
